# Laboratory results published in patent publication US20200207837A1 (published 2020).
# Substitutions are numbered along the chain they refer to.
# T1: activated KLK4 (human KLK4, C-terminal His tag, pro-KLK4 activated with thermolysin) (UniProt Q9Y5K2 31-254)
# T1 chain: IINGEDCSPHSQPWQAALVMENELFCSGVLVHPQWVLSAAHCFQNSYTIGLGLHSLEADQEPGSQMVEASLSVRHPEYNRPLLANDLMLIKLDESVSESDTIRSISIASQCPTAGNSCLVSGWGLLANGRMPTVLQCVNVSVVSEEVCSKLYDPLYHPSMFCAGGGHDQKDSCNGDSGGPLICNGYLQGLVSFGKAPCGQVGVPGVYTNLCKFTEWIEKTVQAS
# T2: activated KLK8 (human KLK8, C-terminal His tag, pro-KLK8 activated with thermolysin) (UniProt O60259 33-260)
# T2 chain: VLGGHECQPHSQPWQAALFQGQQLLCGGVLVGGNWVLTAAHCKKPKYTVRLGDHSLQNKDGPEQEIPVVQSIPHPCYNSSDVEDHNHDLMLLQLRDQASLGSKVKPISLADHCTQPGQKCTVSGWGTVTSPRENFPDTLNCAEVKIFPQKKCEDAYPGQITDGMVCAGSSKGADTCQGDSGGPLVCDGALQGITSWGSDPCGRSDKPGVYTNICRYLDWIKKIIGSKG
# T3: KLK4 biotinylated with EZ-Link NHS-PEG4-Biotin (UniProt Q9Y5K2 31-254, biotinylated with EZ-Link NHS-PEG4-Biotin (sites not given))
# T3 chain: T1 chain
# B1: KLK4/KLK8 inhibitory peptide K41047 (designed binder)
# chain: GSGMKETAAAKFERQHMDSPDLGTDDDDKAMADIGSANSDPQFGLFSKYRTPNCMRFHKDGCARIYDPVCGSDMSTYANECTLCMKIREGGHNIKIIRNGPCGASAAA
# B2: KLK4 inhibitory peptide K40003 (designed binder)
# chain: B1 chain with M55E, R56L, F57Y, H58V, K59E, G61V, A63Q, Y66F, D67K
# B3: KLK4/KLK8 inhibitory peptide K41045 (designed binder)
# chain: B1 chain with M55R, R56K, F57Q, H58Y, K59W, D60V, A63N, I65M, D67A
# B4: KLK4/KLK8 inhibitory peptide K41021 (designed binder)
# chain: B1 chain with M55R, R56K, F57H, H58T, K59L
# B5: KLK4/KLK8 inhibitory peptide K41043 (designed binder)
# chain: B1 chain with M55R, F57Y, H58S, K59I, D60H, A63N, I65M, D67A
# B6: KLK4/KLK8 inhibitory peptide K41042 (designed binder)
# chain: B1 chain with M55S, F57Y, H58R, K59R, D60E, A63N, I65M, D67N
# B7: KLK4/KLK8 inhibitory peptide K41025 (designed binder)
# chain: B1 chain with M55S, F57Y, H58K, K59S, D60G, A63T, Y66F
# B8: KLK4/KLK8 inhibitory peptide K41024 (designed binder)
# chain: B1 chain with M55T, F57Y, H58V, K59V, D60N, A63S, I65V
# B9: KLK4/KLK8 inhibitory peptide K41041 (designed binder)
# chain: B1 chain with M55Q, F57Y, H58S, K59Q, D60W, A63T, I65Q, Y66L
# B10: KLK1 inhibitory peptide K10066 (designed binder)
# chain: GSGMKETAAAKFERQHMDSPDLGTDDDDKAMADIGSANSDPQFGLFSKYRTPNCSVALRDICWWTSEPVCGSDMSTYANECTLCMKIREGGHNIKIIRNGPCGASAAA
# B11: KLK1 inhibitory peptide K10071 (designed binder)
# chain: GSGMKETAAAKFERQHMDSPDLGTDDDDKAMADIGSANSDPQFGLFSKYRTPNCDQNKYRDCHYYYKPVCGSDMSTYANECTLCMKIREGGHNIKIIRNGPCGASAAA
# B12: KLK4 inhibitory peptide K40001 (designed binder)
# chain: B11 chain with D55R, Q56K, N57Y, K58E, R60G, D61V, H63Q, Y64R, Y65T, K67L
# B13: KLK4 inhibitory peptide K40005 (designed binder)
# chain: B11 chain with D55S, N57Q, K58A, Y59M, R60G, D61A, H63Q, Y64R, Y65I
# B14: KLK4/KLK8 inhibitory peptide K41026 (designed binder)
# chain: B1 chain with M55Q, F57Y, H58K, K59M, D60R, A63N, I65M
# B15: KLK1 inhibitory peptide K10061 (designed binder)
# chain: B11 chain with D55A, Q56R, K58N, Y59I, R60V, H63F
# B16: KLK4 inhibitory peptide K40004 (designed binder)
# chain: GSGMKETAAAKFERQHMDSPDLGTDDDDKAMADIGSANSDPQFGLFSKYRTPNCEHAQLGVCQKLYQPVCGSDMSTYANECTLCMKIREGGHNIKIIRNGPCGASAAA
# B17: KLK4/KLK8 inhibitory peptide K41046 (designed binder)
# chain: B16 chain with E55G, H56R, A57Y, Q58Y, L59R, V61W, Q63F, L65S, Y66L, Q67E
# B18: KLK1 inhibitory peptide K10062 (designed binder)
# chain: B10 chain with S55D, V56I, A57Y, L58Q, R59V, I61R, T65A, E67Q
# Target: activated KLK1 (human KLK1, C-terminal His tag, pro-KLK1 activated with thermolysin) (UniProt P06870 25-262)
# Sequence (P06870 25-262): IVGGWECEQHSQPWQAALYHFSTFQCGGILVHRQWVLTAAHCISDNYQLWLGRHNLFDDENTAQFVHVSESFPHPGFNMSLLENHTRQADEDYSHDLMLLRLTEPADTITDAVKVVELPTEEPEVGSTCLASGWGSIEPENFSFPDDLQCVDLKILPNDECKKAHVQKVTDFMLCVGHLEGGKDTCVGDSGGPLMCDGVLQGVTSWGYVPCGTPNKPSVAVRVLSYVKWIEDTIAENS
# Assay: peptide substrate degradation inhibition
row,IC50 [nM],Binder
1,> 1000,B1
2,> 1000,B2
3,> 1000,B3
4,> 1000,B4
5,> 1000,B5
6,> 1000,B6
7,> 1000,B7
8,> 1000,B8
9,> 1000,B9
10,12,B10
11,20,B11
12,> 1000,B12
13,> 1000,B13
14,> 1000,B14
15,13,B15
16,> 1000,B16
17,> 1000,B17
18,12,B18

# Target: T1, activated KLK4 (human KLK4, C-terminal …)
# Assay: peptide substrate degradation inhibition
row,IC50 [nM],Binder
1,7.4,B1
2,1.8,B2
3,2.3,B3
4,53,B4
5,1.9,B5
6,15.7,B6
7,86,B7
8,293,B8
9,2.7,B9
10,> 1000,B10
11,> 1000,B11
12,1.8,B12
13,2.2,B13
14,293,B14
15,> 1000,B15
16,2.1,B16
17,2,B17
18,> 1000,B18

# Target: T2, activated KLK8 (human KLK8, C-terminal …)
# Assay: peptide substrate degradation inhibition
row,IC50 [nM],Binder
1,31.5,B1
2,> 1000,B2
3,114,B3
4,7.5,B4
5,5.3,B5
6,17.5,B6
7,17,B7
8,8,B8
9,11.4,B9
10,> 1000,B10
11,> 1000,B11
12,> 1000,B12
13,> 1000,B13
14,9.1,B14
15,> 1000,B15
16,> 1000,B16
17,283,B17
18,> 1000,B18

# Target: T1, activated KLK4 (human KLK4, C-terminal …)
# Assay: peptide substrate degradation inhibition
# Remark: another data set of the same source
row,Ki [nM],Binder
1,1.38,B1
2,0.2,B2
3,0.32,B3
4,10.7,B4
5,0.21,B5
6,2.8,B6
7,16.3,B7
8,74.6,B8
9,0.4,B9
10,0.16,B12
11,0.21,B13
12,69.3,B14
13,0.38,B16
14,0.31,B17

# Target: T3, KLK4 biotinylated with EZ-Link …
# Assay: SPR (Biacore T200)
row,Kd [pM],Binder
1,23.2,B2
2,8.91,B5
3,2.08,B12
